# IntAct's records for PubMed 16648257
# B1: Type IV secretion system protein virB8 (Brucella suis biovar 1 (strain 1330)), Q7CEG3 (parent)
# chain: MFGRKQSPQKSVKNGQGNAPSVYDEALNWEAAHVRLVEKSERRAWKIAGAFGTITVLLGIGIAGMLPLKQHVPYLVRVNAQTGAPDILTSLDEKSVSYDTVMDKYWLSQYVIARETYDWYTLQKDYETVGMLSSPSEGQSYASQFQGDKALDKQYGSNVRTSVTIVSIVPNGKGIGTVRFAKTTKRTNETGDGETTHWIATIGYQYVNPSLMSESARLTNPLGFNVTSYRVDPEMGVVQ
# partner: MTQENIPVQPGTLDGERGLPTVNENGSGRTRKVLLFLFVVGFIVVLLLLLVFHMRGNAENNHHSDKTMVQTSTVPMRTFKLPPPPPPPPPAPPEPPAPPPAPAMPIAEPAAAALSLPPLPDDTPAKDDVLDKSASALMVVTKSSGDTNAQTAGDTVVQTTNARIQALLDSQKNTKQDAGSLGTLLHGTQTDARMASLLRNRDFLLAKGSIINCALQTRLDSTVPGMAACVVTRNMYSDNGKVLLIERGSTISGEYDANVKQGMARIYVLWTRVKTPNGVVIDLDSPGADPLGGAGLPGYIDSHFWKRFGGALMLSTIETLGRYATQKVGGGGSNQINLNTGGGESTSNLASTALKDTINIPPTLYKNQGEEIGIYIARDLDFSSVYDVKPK
# Variants of: B1
# Settings: with virba_brusu virB10, Q9RPX5
row,Variant,effect of a mutation on the interaction
1,T201A,decreasing interaction strength
2,T201Y,decreasing interaction strength
